Consider 23 molecules from patent US20140341917A1 (Merck KGaA, published 2014).

The chains are these.
T1: hu-PDL-2-huFc (human, UniProt Q9BQ51 20-219, limits assumed)
T1 construct: not shown: human Fc (huFc)
T1 sequence (looked up): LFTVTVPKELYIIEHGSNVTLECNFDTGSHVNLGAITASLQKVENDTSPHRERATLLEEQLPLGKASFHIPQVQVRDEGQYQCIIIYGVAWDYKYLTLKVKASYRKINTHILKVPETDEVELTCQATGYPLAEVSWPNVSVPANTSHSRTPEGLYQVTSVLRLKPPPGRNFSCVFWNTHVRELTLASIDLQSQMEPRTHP

T2: hu-B7.1-huFc (human, UniProt P33681 35-242, limits assumed)
T2 construct: not shown: human Fc (huFc)
T2 sequence (looked up): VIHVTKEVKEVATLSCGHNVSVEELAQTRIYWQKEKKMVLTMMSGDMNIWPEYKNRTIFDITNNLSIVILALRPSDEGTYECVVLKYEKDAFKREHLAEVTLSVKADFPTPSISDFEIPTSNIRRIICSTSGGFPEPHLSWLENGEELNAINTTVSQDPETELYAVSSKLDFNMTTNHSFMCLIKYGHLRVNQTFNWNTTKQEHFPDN

T3: hu-B7.2-huFc (human, UniProt P42081 26-245, limits assumed)
T3 construct: not shown: human Fc (huFc)
T3 sequence (looked up): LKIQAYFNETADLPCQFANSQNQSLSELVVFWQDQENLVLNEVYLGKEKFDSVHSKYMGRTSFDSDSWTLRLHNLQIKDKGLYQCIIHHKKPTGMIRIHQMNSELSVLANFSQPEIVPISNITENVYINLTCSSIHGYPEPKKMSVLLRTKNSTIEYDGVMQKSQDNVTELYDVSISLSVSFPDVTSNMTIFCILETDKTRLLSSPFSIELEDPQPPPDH

T4: huB7-H2-huFc (human, UniProt O75144 19-258, limits assumed)
T4 construct: not shown: human Fc (huFc)
T4 sequence (looked up): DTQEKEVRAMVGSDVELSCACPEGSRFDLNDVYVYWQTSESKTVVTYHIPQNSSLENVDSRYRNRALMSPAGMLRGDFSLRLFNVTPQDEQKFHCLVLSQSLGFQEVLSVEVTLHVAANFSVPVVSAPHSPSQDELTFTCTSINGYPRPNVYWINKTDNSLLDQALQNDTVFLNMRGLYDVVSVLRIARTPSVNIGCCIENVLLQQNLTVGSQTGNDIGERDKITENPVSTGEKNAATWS

T5: huB7-H3-huFc (human, UniProt Q5ZPR3-2 29-245, limits assumed)
T5 construct: not shown: human Fc (huFc)
T5 sequence (looked up): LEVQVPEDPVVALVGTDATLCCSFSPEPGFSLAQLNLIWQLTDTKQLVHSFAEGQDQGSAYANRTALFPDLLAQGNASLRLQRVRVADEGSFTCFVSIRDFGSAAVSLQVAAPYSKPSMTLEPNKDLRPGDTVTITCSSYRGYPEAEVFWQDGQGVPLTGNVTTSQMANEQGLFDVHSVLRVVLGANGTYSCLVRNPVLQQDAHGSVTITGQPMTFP

B1: A09-246-2 (antibody, human IgG1, lambda, V domains shown)
VH: EVQLLESGGGLVQPGGSLRLSCAASGFTFSSYIMMWVRQAPGKGLEWVSSIYPSGGITFYADTVKGRFTISRDNSKNTLYLQMNSLRAEDTAVYYCARIKLGTVTTVDYWGQGTLVTVSS
VL: QSALTQPASVSGSPGQSITISCTGTSSDVGGYNYVSWYQQHPGKAPKLMIYDVSNRPSGVSNRFSGSKSGNTASLTISGLQAEDEADYYCSSYTSSSTRVFGTGTKVTVLG
notes: lambda light chain
B2: A09-188-1 (antibody, human IgG1, lambda, V domains shown)
VH: B1 VH with S31M, I33M, T63S, V93I
VL: B1 VL with G31A
notes: Parent antibody, lambda light chain, expressed as IgG
B3: A09-214-1 (antibody, human IgG1, lambda, V domains shown)
VH: B1 VH with S31I
VL: B1 VL with G31A
notes: 193V read as I93V; also called VH-M31I, M33I, S63T, 193V
B4: A09-248-2 (antibody, human IgG1, lambda, V domains shown)
VH: B1 VH with S31I, M35F
VL: B1 VL
notes: also called VL-A31G; VH-M31I, M33I, M35F, S63T, I93V
B5: A09-240-2 (antibody, human IgG1, lambda, V domains shown)
VH: B1 VH with S31M, M35F
VL: B1 VL
notes: also called VL-A31G; VH-M33I, M35F, S63T, I93V
B6: A09-215-1 (antibody, human IgG1, lambda, V domains shown)
VH: B1 VH with S31M, I33L, M35F
VL: B1 VL with G31A
notes: 193V read as I93V; also called VH-M33L, M35F, S63T, 193V
B7: A09-202-1 (antibody, human IgG1, lambda, V domains shown)
VH: B1 VH with S31M, I33M, T63S, V93I
VL: B1 VL
notes: also called VL-A31G
B8: A09-216-1 (antibody, human IgG1, lambda, V domains shown)
VH: B1 VH with S31I, I33L
VL: B1 VL with G31A
notes: 193V read as I93V; also called VH-M31I, M33L, S63T, 193V
B9: A09-245-2 (antibody, human IgG1, lambda, V domains shown)
VH: B1 VH with I33L, M35F
VL: B1 VL
notes: also called VL-A31G; VH-M31S, M33L, M35F, S63T, I93V
B10: A09-204-1 (antibody, human IgG1, lambda, V domains shown)
VH: B1 VH with S31I, M35F
VL: B1 VL with G31A
notes: positions counted from the N-terminus of the chain; also called VH-M31I, M33I, M35F, S63T, I93V
B11: A09-223-1 (antibody, human IgG1, lambda, V domains shown)
VH: B1 VH with I33M, M35F
VL: B1 VL with G31A
notes: also called VH-M31S, M35F, S63T, I93V
B12: A09-241-2 (antibody, human IgG1, lambda, V domains shown)
VH: B1 VH with S31I
VL: B1 VL
notes: also called VL-A31G; VH-M31I, M33I, S63T, I93V
B13: A09-219-1 (antibody, human IgG1, lambda, V domains shown)
VH: B1 VH with M35F
VL: B1 VL with G31A
notes: also called VH-M31S, M33I, M35F, S63T, I93V
B14: A09-239-2 (antibody, human IgG1, lambda, V domains shown)
VH: B1 VH with S31I, I33L, M35F
VL: B1 VL
notes: also called VL-A31G; VH-M31I, M33L, M35F, S63T, I93V
B15: A09-243-2 (antibody, human IgG1, lambda, V domains shown)
VH: B1 VH with S31I, I33L
VL: B1 VL
notes: also called VL-A31G; VH-M31I, M33L, S63T, I93V
B16: A09-213-1 (antibody, human IgG1, lambda, V domains shown)
VH: B1 VH with S31I, I33M, M35F
VL: B1 VL with G31A
notes: 193V read as I93V; also called VH-M31I, M35F, S63T, 193V
B17: A09-220-1 (antibody, human IgG1, lambda, V domains shown)
VH: B1 VH with I33L, M35F
VL: B1 VL with G31A
notes: also called VH-M31S, M33L, M35F, S63T, I93V
B18: A09-244-2 (antibody, human IgG1, lambda, V domains shown)
VH: B1 VH with M35F
VL: B1 VL
notes: also called VL-A31G; VH-M31S, M33I, M35F, S63T, I93V
B19: A09-212-1 (antibody, human IgG1, lambda, V domains shown)
VH: B1 VH with S31M, M35F
VL: B1 VL with G31A
notes: 193V read as I93V; also called VH-M33I, M35F, S63T, 193V
B20: A09-211-1 (antibody, human IgG1, lambda, V domains shown)
VH: B1 VH with S31I, I33L, M35F
VL: B1 VL with G31A
notes: 193V read as I93V; also called VH-M31I, M33L, M35F, S63T, 193V
B21: A09-247-2 (antibody, human IgG1, lambda, V domains shown)
VH: B1 VH with I33L
VL: B1 VL
notes: also called VL-A31G; VH-M31S, M33L, S63T, I93V
B22: A09-222-1 (antibody, human IgG1, lambda, V domains shown)
VH: B1 VH with I33L
VL: B1 VL with G31A
notes: also called VH-M31S, M33L, S63T, I93V
B23: A09-242-2 (antibody, human IgG1, lambda, V domains shown)
VH: B1 VH with S31M, I33L, M35F
VL: B1 VL
notes: also called VL-A31G; VH-M33L, M35F, S63T, I93V

Numbering of substitutions follows the chain as printed. Names and notes keep the numbering of the source.

T6 sequence (Q9NZQ7 19-238 limits assumed): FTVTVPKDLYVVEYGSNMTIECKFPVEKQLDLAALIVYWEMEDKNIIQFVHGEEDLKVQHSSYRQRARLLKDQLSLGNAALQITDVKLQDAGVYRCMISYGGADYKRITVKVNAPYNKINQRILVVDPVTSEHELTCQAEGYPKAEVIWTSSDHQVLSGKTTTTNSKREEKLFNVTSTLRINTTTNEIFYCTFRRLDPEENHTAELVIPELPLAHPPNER
T7 sequence (G7PSE7 entry or part of it limits assumed): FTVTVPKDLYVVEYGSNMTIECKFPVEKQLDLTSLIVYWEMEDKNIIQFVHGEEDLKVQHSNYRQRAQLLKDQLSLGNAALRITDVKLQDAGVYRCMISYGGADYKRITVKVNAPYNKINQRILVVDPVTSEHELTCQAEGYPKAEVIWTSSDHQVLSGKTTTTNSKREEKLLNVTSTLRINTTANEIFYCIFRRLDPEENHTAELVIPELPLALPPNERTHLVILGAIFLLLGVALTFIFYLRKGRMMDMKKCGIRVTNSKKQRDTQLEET

The target of one assay is T1, hu-PDL-2-huFc. Kind of assay: Biacore. (In general: In SPR one partner is held on a chip, and binding of the other changes the refractive index at the surface.)
Consider B1, for which the binding result was “no binding”.

Another assay has as its target T2, hu-B7.1-huFc. Kind of assay: Biacore.
For the molecule B1, the binding result was “no binding”.

Another assay deals with T3, hu-B7.2-huFc. Kind of assay: Biacore.
Take B1: the binding result was “no binding”.

A further assay has as its target T4, huB7-H2-huFc. Nature of the assay: Biacore.
Consider B1, for which the binding result is on record as “no binding”.

A further assay deals with T5, huB7-H3-huFc. Kind of assay: Biacore.
Consider B1, for which the binding result is recorded as “no binding”.

Another assay has as its target T6, human PD-L1 (human, UniProt Q9NZQ7 19-238, limits assumed).
T6 construct: Protein used in the Biacore assays of 3.1
Nature of the assay: Biacore kinetic profile.
As to B2, the Kd is 5.29 nM and the t½ was found to be 0.22 h.
The matching figures for B3: 0.4 nM and 2.98 h.
B4: the Kd came to 0.1 nM and the t½ is 7.27 h.
B5 yielded a Kd of 0.16 nM and a t½ of 4.1 h.
B6 had a Kd of 1.28 nM and a t½ of 0.843 h.
Turning to B7, the dissociation constant (Kd) came out at 4.15 nM and the t½ was 0.313 h.
Regarding B8, the Kd came out at 0.91 nM and the t½ is 1.3 h.
Molecule B9 displayed a t½ of 1.29 h.
For the molecule B10, the Kd was 0.1 nM and the t½ worked out at 9.64 h.
For the molecule B11, the Kd was 3.62 nM and the t½ amounted to 0.225 h.
As for B12, binding was characterised by a dissociation constant (Kd) of 0.32 nM and the t½ was found to be 2.77 h.
In the case of B13, the dissociation constant Kd is 0.18 nM and the t½ came to 4.64 h.
B14 gave a t½ of 2 h.
B15 registered a t½ of 1.42 h.
Regarding B16, the dissociation constant (Kd) was found to be 2.51 nM and the t½ was found to be 0.462 h.
B17 returned a t½ of 1.14 h.
With B18, the dissociation constant Kd amounted to 0.12 nM and the t½ stood at 4.66 h.
B19 had a t½ of 4.24 h.
With B20, the t½ was 1.82 h.
B21: the affinity, expressed as Kd, was 0.76 nM and the t½ was determined as 0.963 h.
For B22, the equilibrium dissociation constant (Kd) was found to be 1.24 nM and the t½ is 0.785 h.
B23 returned a Kd of 0.76 nM and a t½ of 0.927 h.

For a further assay, the target named is T6, human PD-L1. Nature of the assay: Biacore; relative to A09-188-1.
Turning to B2, the “Relative KD” value is 1.
Take B3: the “Relative KD” value was determined as 0.08.
Take B4: the “Relative KD” value was determined as 0.02.
The same measure, in the same setting: under B5 stands 0.03; under B6, 0.24.
In the case of B7, the “Relative KD” value is 0.78.
As to B8, the “Relative KD” value was 0.17.
On to B10, for which the “Relative KD” value was 0.02.
Take B11: the “Relative KD” value was 0.68.
For the molecule B12, the “Relative KD” value was 0.07.
On the same count and under the same terms, the same measure for B13: 0.03.
With B16, the “Relative KD” value was 0.47.
The same measure, in the same setting: under B18 stands 0.03; under B21, 0.16; under B22, 0.23.
As for B23, the “Relative KD” value came to 0.16.

Another assay addresses T7, cynomolgus monkey PD-L1 expressed on the HEK cell surface (cynomolgus monkey, UniProt G7PSE7 19-290).
T7 construct: The sentence prints only 'cynomolgus monkey expressed on the HEK cell surface'
Kind of assay: direct FACS binding, HEK cells expressing cynomolgus monkey PD-L1. (In flow cytometry, cells or beads pass a laser one at a time.)
The molecule B1 came in with an EC50 of 0.94 nM.

The target in another assay is T8, mouse PD-L1 (mouse, UniProt Q9EP73 19-238, limits assumed).
T8 construct: Biacore protein
T8 sequence (Q9EP73 19-238 limits assumed): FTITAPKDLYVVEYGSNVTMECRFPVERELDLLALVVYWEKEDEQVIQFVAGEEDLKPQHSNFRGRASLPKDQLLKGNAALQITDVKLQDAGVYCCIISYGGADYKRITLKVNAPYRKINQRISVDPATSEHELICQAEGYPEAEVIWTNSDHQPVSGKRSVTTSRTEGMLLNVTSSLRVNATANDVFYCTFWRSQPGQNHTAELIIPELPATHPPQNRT
Kind of assay: ELISA, later Biacore and FACS on PD-L1 expressing cells (hit selection, IgG format). (In general: In an ELISA, binding on a coated surface is turned into a signal by an enzyme label.)
Take B2: the binding result was “binds”.

For orientation: Kd means the concentration at which binding is half-saturated. A word on the t½: it is the time in which the quantity being followed falls by half. In general, EC50 refers to the concentration that produces a half-maximal response.
